Reference: patent publication US20250171532A1 (NB HEALTH LABORATORY, published 2025)
Read-outs that look alike come from different tables or passages of the source.

T1: mouse LPA3 with FLAG tag (mouse LPA3 gene transfected cell) (mouse, UniProt Q9EQ31 1-354)
T1 construct: not shown: FLAG tag added at the 5' terminal of the gene
T1 sequence: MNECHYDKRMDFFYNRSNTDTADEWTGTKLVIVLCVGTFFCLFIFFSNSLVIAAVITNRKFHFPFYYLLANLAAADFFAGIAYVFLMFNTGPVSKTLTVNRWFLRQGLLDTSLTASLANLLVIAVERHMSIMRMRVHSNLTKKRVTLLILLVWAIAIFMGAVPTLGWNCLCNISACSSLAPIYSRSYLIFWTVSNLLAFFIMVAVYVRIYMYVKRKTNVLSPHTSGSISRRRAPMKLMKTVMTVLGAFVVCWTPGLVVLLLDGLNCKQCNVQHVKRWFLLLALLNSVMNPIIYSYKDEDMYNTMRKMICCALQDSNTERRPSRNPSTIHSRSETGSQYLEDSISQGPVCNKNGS

T2: human LPA3 with FLAG tag (human LPA3 gene transfected cell) (human, UniProt Q9UBY5 1-353)
T2 construct: also called EDG7; not shown: FLAG tag added at the 5' terminal of the gene
T2 sequence: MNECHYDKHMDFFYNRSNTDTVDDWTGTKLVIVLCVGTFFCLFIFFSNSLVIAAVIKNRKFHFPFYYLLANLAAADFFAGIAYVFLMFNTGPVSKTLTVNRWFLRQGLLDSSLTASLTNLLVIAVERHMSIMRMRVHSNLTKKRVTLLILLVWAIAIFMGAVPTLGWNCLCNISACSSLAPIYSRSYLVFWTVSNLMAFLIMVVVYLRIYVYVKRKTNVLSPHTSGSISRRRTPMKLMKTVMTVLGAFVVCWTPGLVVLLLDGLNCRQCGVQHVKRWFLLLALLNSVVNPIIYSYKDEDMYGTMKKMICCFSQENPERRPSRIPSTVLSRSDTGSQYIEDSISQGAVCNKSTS


How the values were obtained:
human LPA1 [1] = target: T3, human LPA1 (human, UniProt Q92633 1-364); assay: cell-based or functional assay
human LPA1 [2] = target: T3, human LPA1; assay: flow cytometry, human LPA1-stably expressing CHO cells, median fluorescence intensity
From the text: (§1) The human LPA1-stably expressing CHO cell and the mouse LPA1-stably expressing CHO cell were washed with PBS, then detached from the cell culture dishes by an enzyme-free cell dissociation buffer (Thermo Fisher Scientific, Inc.), then washed with PBS, and then collected by centrifugation. The human LPA1-stably expressing CHO cell and the mouse LPA1-stably expressing CHO cell were suspended at 1×10⁷ cells/mL in Fc Block (Sci-Tech Biosciences, Inc.) diluted by 500 times in FACS buffer, and then allowed to stand at 4° C. for 30 minutes to block the cells. The cells were collected by centrifugation and suspended in FACS buffer at 4×10⁶ cells/mL, and this suspension was dispensed into a V-bottom 96-well plate (Thermo Fisher Scientific, Inc.) at 25 μL (1×10⁵ cells)/well. As primary antibodies, the eleven types of LPA1 antibodies produced and purified by the method described above and a mouse isotype control antibody (Fujifilm Wako Pure Chemicals Corporation) were diluted stepwise, which was added to each well at 25 μL/well, and allowed to stand at 4° C. for 1 hour. The cells were collected by centrifugation and washed with 120 μL of FACS buffer. This washing operation was repeated twice. To the cell sediment, 25 μL each of Goat Anti-Mouse IgG H&L (DyLight 650) (Abcam) that was a secondary antibody diluted by 500 times in FACS buffer was dispensed, then suspended, and then allowed to stand at 4° C. for 1 hour. The cells were washed twice, then suspended in 50 μL of FACS buffer, and the binding of antibodies to the cells was measured using a flow cytometer (Agilent Novocyte).
(§2) A graph was created, in which a concentration of the antibody was plotted on the […] axis, and a median fluorescence intensity of the flow cytometer histogram was plotted on the horizontal axis. All of the eleven antibodies were confirmed to dose-dependently bind to the human LPA1-stably expressing CHO cell and the mouse LPA1-stably expressing CHO cell. The results of the binding of each antibody to the human LPA1-stably expressing CHO cell are presented in FIG. 2A to FIG. 2K, and the results of the binding of each antibody to the mouse LPA1-stably expressing CHO cell are presented in FIG. 3A to FIG. 3K.

[3] = target: T4, human LPA2 with FLAG tag (human LPA2 gene transfected cell) (human, UniProt Q9HBW0 1-348); assay: flow cytometry, transfected HEK293FT cells, histogram shift
T4 construct: also called EDG4; not shown: FLAG tag added at the 5' terminal of the gene
Description: (§3) BTEK293FT cell was transfected with 10 μg of an expression vector carrying each synthetic gene using Lipofectamine 2000, to prepare a human LPA1 gene transfected cell, a mouse LPA1 gene transfected cell, a human LPA2 gene transfected cell, a mouse LPA2 gene transfected cell, a human LPA3 gene transfected cell, and a mouse LPA3 gene transfected cell.
(§4) The next day, the cells were washed with PBS, then detached from the cell culture dishes by an enzyme-free cell dissociation buffer (Thermo Fisher Scientific, Inc.), then washed with PBS, and then collected by centrifugation. Goat serum (Thermo Fisher Scientific, Inc.) was diluted by 2 times in FACS buffer (PBS containing 1% o of FBS), into which the cells were suspended at 1×10⁷ cells/mL. This suspension was allowed to stand at 4° C. for 30 minutes to block the cells. The cells were collected by centrifugation and suspended in FACS buffer at 4×10⁶ cells/mL, and this suspension was dispensed into a V-bottom 96-well plate (Thermo Fisher Scientific, Inc.) at 25 μL (1×10⁵ cells)/well.
(§5) The cells were collected by centrifugation and washed with 120 μL of FACS buffer. This washing operation was repeated twice. To the cell sediment, 25 μL each of Goat Anti-Mouse IgG H&L (DyLight 650) (Abcam) that was a secondary antibody diluted by 500 times in FACS buffer was dispensed, then suspended, and then allowed to stand at 4° C. for 1 hour. The cells were washed twice, then suspended in 50 μL of FACS buffer, and the whole content thereof was transferred to a V-bottom 96-well plate (Greiner), to measure the binding of antibodies to the cells using a flow cytometer (Agilent Novocyte).

[4] = target: T1, mouse LPA3 with FLAG tag (mouse LPA3 …); assay: as above
Description: as §3, §4, §5

[5] = target: T5, mouse LPA2 with FLAG tag (mouse LPA2 gene transfected cell) (mouse, UniProt Q9JL06 1-348); assay: as above
T5 construct: not shown: FLAG tag added at the 5' terminal of the gene
Description: as §3, §4, §5

[6] = target: T2, human LPA3 with FLAG tag (human LPA3 …); assay: as above
Description: as §3, §4, §5

human LPA1 [7] = target: T3, human LPA1; assay: flow cytometry, human LPA1-stably expressing CHO cells, median fluorescence intensity; remark: listed apart in the source
From the text: as §1
Subsequently, the binding activity of the human LPA1-stably expressing CHO cell to human LPA1 was measured according to the method in Example 6. A graph was created, in which a concentration of the antibody was plotted on the […] axis, and a median fluorescence intensity of the flow cytometer histogram was plotted on the horizontal axis. […] The intracellular cAMP signaling inhibitory activity was also measured according to the method in Example 7.

mouse LPA1 [8] = target: T6, mouse LPA1 (mouse, UniProt P61793 1-364); assay: cell-based or functional assay
human LPA1 [9] = target: T3, human LPA1; assay: cell-based or functional assay; remark: listed apart in the source
mouse LPA1 [10] = target: T6, mouse LPA1; assay: cell-based or functional assay; remark: listed apart in the source
human LPA1 [11] = target: T3, human LPA1; assay: cell-based or functional assay; remark: listed apart in the source
mouse LPA1 [12] = target: T6, mouse LPA1; assay: flow cytometry, mouse LPA1-stably expressing CHO cells, median fluorescence intensity
From the text: as §1, §2

T3 sequence (Q92633 whole entry): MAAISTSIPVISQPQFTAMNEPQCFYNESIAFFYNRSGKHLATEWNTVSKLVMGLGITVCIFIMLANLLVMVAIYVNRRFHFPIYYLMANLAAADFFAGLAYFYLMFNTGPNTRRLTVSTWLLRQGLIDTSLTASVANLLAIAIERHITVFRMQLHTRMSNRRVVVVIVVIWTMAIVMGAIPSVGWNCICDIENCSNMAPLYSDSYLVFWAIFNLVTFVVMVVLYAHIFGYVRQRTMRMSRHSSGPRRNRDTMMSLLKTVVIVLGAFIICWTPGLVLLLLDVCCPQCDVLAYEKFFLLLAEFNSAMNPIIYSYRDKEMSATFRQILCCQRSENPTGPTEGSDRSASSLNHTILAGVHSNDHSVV
T6 sequence (P61793 whole entry): as the sequence (Q92633 whole entry) above, with I4A, I8S, P22Q, H40Y, I61V, E193D, N194H, I269V, S331N, T335N counted along it
T5 sequence (Q9JL06 whole entry): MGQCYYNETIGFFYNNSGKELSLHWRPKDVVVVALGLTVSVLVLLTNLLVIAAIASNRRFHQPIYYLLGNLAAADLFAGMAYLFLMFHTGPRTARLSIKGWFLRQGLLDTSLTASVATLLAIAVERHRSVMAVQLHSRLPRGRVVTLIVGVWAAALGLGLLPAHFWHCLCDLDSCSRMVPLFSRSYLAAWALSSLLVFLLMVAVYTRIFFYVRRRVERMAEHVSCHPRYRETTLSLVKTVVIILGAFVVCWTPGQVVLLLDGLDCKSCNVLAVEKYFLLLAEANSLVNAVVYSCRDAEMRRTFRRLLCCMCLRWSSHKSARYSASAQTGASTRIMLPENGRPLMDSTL
T4 sequence (Q9HBW0 other isoform, or with tags, fused parts or gaps): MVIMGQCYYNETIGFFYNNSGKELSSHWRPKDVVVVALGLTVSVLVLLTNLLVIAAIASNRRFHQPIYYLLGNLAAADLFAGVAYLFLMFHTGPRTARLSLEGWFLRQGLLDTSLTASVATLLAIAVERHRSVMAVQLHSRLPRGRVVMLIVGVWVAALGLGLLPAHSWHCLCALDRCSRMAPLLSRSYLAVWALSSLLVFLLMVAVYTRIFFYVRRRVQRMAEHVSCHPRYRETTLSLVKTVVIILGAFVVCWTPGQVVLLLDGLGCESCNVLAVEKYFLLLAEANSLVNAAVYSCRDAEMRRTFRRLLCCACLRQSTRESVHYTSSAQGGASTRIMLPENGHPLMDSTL

Row | Binder | Intracellular cAMP signaling inhibition IC50 (human LPA1 [1]) [nM] | EC50 (human LPA1 [7]) [nM] | also measured
1 | 210309-4-A (antibody, mouse IgG1, V domains shown, Mouse monoclonal from human LPA1 immunization) VH: QVQLQQSGAELARPGASVKLSCKASGYTFTSYGISWVKQRTGQGLEWIGEIYPRSGNTYYNEKFKGKATLTADKSSSTAYMELRSLTSEDSAVYFCARESISRRLGWNFDVWGTGTTVTVSS VL: DIHMTQSPASLSASVGETVTITCRASENIYSFLAWYQQKQGKSPHLVVYNAKTLTEGVPSRFSGSGSGTHFSLKINSLQPEDFGIYYCQHHYGPPLTFGAGTKLELK | 4.5 | 1.4 | EC50 (human LPA1 [2]): 1.5 nM; binding result [3]: no binding (tested: 25 g/mL (so in the source)); binding result [4]: no binding (tested: 25 g/mL (so in the source)); binding result [5]: no binding (tested: 25 g/mL (so in the source)); binding result [6]: no binding (tested: 25 g/mL (so in the source)); Intracellular cAMP signaling inhibition (Inhibition rate %/100 nM) (mouse LPA1 [8]): 50%; Intracellular cAMP signaling inhibition (Inhibition rate %/100 nM) (human LPA1 [9]): 95%; Intracellular cAMP signaling inhibition IC50 (mouse LPA1 [10]): 23.8 nM; Intracellular cAMP signaling inhibition IC50 (human LPA1 [11]): 5.3 nM; EC50 (mouse LPA1 [12]): 1.1 nM
2 | 309-4-A-Chimera (antibody, human IgG1, kappa, L234A L235A, V domains shown, also called chimeric anti-LPA1 antibody) VH: QVQLQQSGAELARPGASVKLSCKASGYTFTSYGISWVKQRTGQGLEWIGEIYPRSGNTYYNEKFKGKATLTADKSSSTAYMELRSLTSEDSAVYFCARESISRRLGWNFDVWGTGTTVTVSS VL: DIHMTQSPASLSASVGETVTITCRASENIYSFLAWYQQKQGKSPHLVVYNAKTLTEGVPSRFSGSGSGTHFSLKINSLQPEDFGIYYCQHHYGPPLTFGAGTKLELKR | 1 | 4.4 | 
3 | h309-4-A-BP1 (antibody, human IgG1, kappa, L234A L235A, V domains shown, also called humanized anti-LPA1 antibody) VH: QVQLVQSGAEVKKPGASVKVSCKASGYTFTSYGISWVRQAPGQGLEWMGEIYPRSGNTYYNEKFKGRVTLTADKSTSTAYMELRSLTSEDTAVYFCARESISRRLGWNFDVWGQGTTVTVSS VL: DIQMTQSPSSLSASVGDTVTITCRASENIYSFLAWYQQKPGKAPKLLIYNAKTLTEGVPSRFSGSGSGTHFSLTINSLQPEDFGIYYCQHHYGPPLTFGQGTKLEIKR | 4.4 | 4.3 | 

Further lines, with some results ahead:

Row | Intracellular cAMP signaling inhibition IC50 (human LPA1 [1]) [nM] | EC50 (human LPA1 [7]) [nM] | Binder | also measured
4 | 5.2 | 4.9 | h309-4-A-SS1 (antibody, human IgG1, kappa, L234A L235A, V domains shown, also called humanized anti-LPA1 antibody) VH: QVQLQESGPGLVKPSETLSLTCTASGYTFTSYGISWVRQTPGKGLEWIGEIYPRSGNTYYNEKFKGRATLSADKSKNQASLKLKSVTAADTAIYFCARESISRRLGWNFDVWGRGTLVTVSG VL: DIQMTQTPSSLSASVGDRVTITCRASENIYSFLAWYQQKPGEAPKRVVYNAKTLTEGVPSRFSGSGSGTDFTLTISSLQPEDFATYYCQHHYGPPLTFGQGTKLEIKR | 
5 | 5.7 | 4.2 | h309-4-A-SG1 (antibody, human IgG1, kappa, L234A L235A, V domains shown, also called humanized anti-LPA1 antibody) VH: QVQLVQSGAEVKKPGASVKVSCKASGYTFTSYGISWVRQAPGQGLEWIGEIYPRSGNTYYNEKFKGRATLTADKSTSTAYMELRSLRSDDTAVYFCARESISRRLGWNFDVWGTGTTVTVSS VL: DIQMTQSPSSLSASVGDRVTITCRASENIYSFLAWYQQKPGKAPKLVVYNAKTLTEGVPSRFSGSGSGTDFTLTISSLQPEDFATYYCQHHYGPPLTFGAGTKLELKR | 
